Data taken from the DeepSol protein solubility set.

Experiment: soluble on expression in E. coli; label from the status in PepcDB or PDB records

Soluble on expression in E. coli, soluble:
MSLILVTGHRGFIGSHIYSYFNGNSEVYGFDIGDKLEDRRYDVIIHMAARGLIRKSIEFPYDYFQDDLSLVVRFLELARKNDSVFIFPSSGSTAEPTNPYSLAKKNAEEWIRLYGKLYGLKYYILRFFNIYGDGAKKGAVYLFTKAALSGEEAIVYGDGSHIRDFLYVGDVPITIERILNEKYRTGEYEVGSGKGTSVNDLISLIEKVTGKKIRTRHEDYIVPEASELVAKNTIVKNPTPLEVGVERVMEFILKDNEGHHHHHH
MPNILYKIDNQYPYFTKNEKKIAQFILNYPHKVVNMTSQEIANQLETSSTSIIRLSKKVTPGGFNELKTRLSKFLPKEVTQYNVELVDNESTISLKNKLHSRSKAAL
HKCDITLQEIIKDLNSLTEQKTLCTELTVTDIFAASKNTTEKETFCRAATVLRQFYSHHEKDTRCLGATAQQFHRHKQLIRDLKRLDRNLWGLAGLNSCPVKEANQSTLENFLERLKTIMREKYSKCSS
MGSDKIHHHHHHMAFFDLPLEELKKYRPERYEEKDFDEFWEETLAESEKFPLDPVFERMESHLKTVEAYDVTFSGYRGQRIKGWLLVPKLEEEKLPCVVQYIGYNGGRGFPHDWLFWPSMGYICFVMDTRGQGSGWLKGDTPDYPEGPVDPQYPGFMTRGILDPRTYYYRRVFTDAVRAVEAAASFPQVDQERIVIAGGSQGGGIALAVSALSKKAKALLCDVPFLCHFRRAVQLVDTHPYAEITNFLKTHRDKEEIVFRTLSYFDGVNFAARAKIPALFSVGLMDNICPPSTVFAAYNYYAGPKEIRIYPYNNHEGGGSFQAVEQVKFLKKLFEKG

Soluble on expression in E. coli, not soluble:
MGSDKIHHHHHHMTPSMVEDVRIEQLWIPDSLDGPDSADFLAAVEVGRKVRMQTWGSDDLAYTPLEKLLEFADPYERQVILVARVEGNIVGTVDIALPLADNLDLAEFTLDILPEFQRQGVGRQLLEAAEQFARAEGRSMILIDTNHPGVSLSSSADDQLVPGSGLGFVPMGSREVEFARKTGYTLQHIEQFSSCLLPLDTKLVAELSDEAEQANAGRYRLHHWTDRCPDIWLEGVAALENQAGGDTEPSTRTDEQMVFDGAMIRKAEDATIAQGRRTVVTAVEHIATGTLVGLTTISVLSQRQDVVFQDDTVVMQEHRGNKLGLLIKVANMVRLTEQFPDARVIYTWNAPENRYLLKVNQQLGFNTAGVTGIWQKDLPDLGPSSS
AAISLDEQWRMIKENQLMMIAHGIASPRLPEASNLWLISLKLWSCESEIIDEQTFRRSFSDPALSHALDQRVCHDFFQQAAKAVASKGLSIALPLSVAGLSSATLVNELLEQLENSPLPARLLHLIIPAEAIFDHAESVQKLRLAGCRIVFSQVGRDLQIFNSLKANMADYLLLDGELCANVQGNLMDEMLITIIQGHAQRLGMKTIAGPVVLPLVMDTLSGIGVDLIYGDVIANAQPLDLLVNRSYFAIN
MGSDKIHHHHHHMTLDSIERAIADIANGKPVVVVDSEDRENEGDLIFAADKATPELVAFMVRYSSGYICASLTSEECDRLQLPPMTSHNEDARGTAYAVTVDANTGTTGISATSRADTLRKLADSQFGPQDFTRPGHVVPLRAKAGGVLERAGHTEAAVDLARMAGLNPAGVLCEVVSEDDPTDMARAPELRRFADRHDLALISIEQLIEWRRRYELLVERAVSTQLPTEFGRFTAVGYRGIVDGVEHIALVAGDITSDEGKDVLLRVHSECLTGDVLGSRRCDCGPQLQASLRAISERGRGVVVYLRGHEGRGIGLLHKLQAYHLQDEGADTVDANKALGLPVDARNYSVAAHILRDLGVQSVCLLTNNPEKSLELERYGVKVTGREPVKVEVHEDNIRYLTTKRDRMNHDLPWIAEYKKEQS
MGSDKIHHHHHHMEFMKQLGSCCQYCAYPLSDDTYLVCGQCVRKRPSFDSAYIAYRFEEPLRSLIHQFKYHNGLYLASFLKQLLLNALPKNALKPDCLIPVPMHPKRLKRRGFNQAGVLTRLLARQLNIPYDLYYCQKIINTASQANLDGEQRRKNLRHAFYVSAVTYEHVMIVDDLLTTGSTANEMAHTLKNAGVKRVDICCCARAVTKN
MGKQLESRTIPPYEPKAGEEYMSPEQLAHFRKILEYQRAELSMEIDRAVHVMQEESTIFADPADRATQESDMALELRSRDRERKLIKKIDEIFTKIDSGEYGYCEKCGIEIGLKRLEARPTASLCIDCKTLDEIRERQMAK
MSRIVAIDYGRKRTGIAVSDTLQLIANGLTTVPTHELLNFIGGYVAKEPVERIIIGLPKQMNNEASENMKNIEPFVRSLKKRFPELPVEYVDERFTSVLAHRTMLEAGLKKKDRQNKALVDEISATIILQTYLESKRF
